B1: human soluble FLT3L (recombinant huFLT3L) (ligand, UniProt P49771 27-184, looked up)
chain: TQDCSFQHSPISSDFAVKIRELSDYLLQDYPVTVASNLQDEELCGGLWRLVLAQRWMERLKTVAGSKMQGLLERVNTEIHFVTKCAFQPPPSCLRFVQTNISRLLQETSEQLVALKPWITRQNFSRCLELQCQPDSSTLPPPWSPRPLEATAPTAPQP
notes: extracellular domain; also called rhuFLT3L; hFLT3L

Columns and labels:
[1] = biological target: T1, cynomolgus monkey soluble FLT3L (cynomolgus monkey); test: Biacore, Fab, steady-state
T1 construct: extracellular domain; also called cyno sFLT3L; cyno FLT3L

[2] = biological target: B1; test: Biacore, Fab, steady-state
[3] = biological target: T1, cynomolgus monkey soluble FLT3L; test: Biacore, Fab
[4] = biological target: B1; test: Biacore, Fab
[5] = biological target: T1, cynomolgus monkey soluble FLT3L; test: Biacore, Fab, kinetic (koff/kon)
[6] = biological target: B1; test: Biacore, Fab, kinetic (koff/kon)
[7] = biological target: T1, cynomolgus monkey soluble FLT3L; test: Biacore, Fab; remark: listed apart in the source
[8] = biological target: B1; test: Biacore, Fab; remark: listed apart in the source
[9] = biological target: B1; test: Biacore
FLT3 on RS4;11 cells [10] = biological target: T2, FLT3 on RS4;11 cells (human, UniProt P36888 27-993); test: cell-based or functional assay
T2 sequence (looked up): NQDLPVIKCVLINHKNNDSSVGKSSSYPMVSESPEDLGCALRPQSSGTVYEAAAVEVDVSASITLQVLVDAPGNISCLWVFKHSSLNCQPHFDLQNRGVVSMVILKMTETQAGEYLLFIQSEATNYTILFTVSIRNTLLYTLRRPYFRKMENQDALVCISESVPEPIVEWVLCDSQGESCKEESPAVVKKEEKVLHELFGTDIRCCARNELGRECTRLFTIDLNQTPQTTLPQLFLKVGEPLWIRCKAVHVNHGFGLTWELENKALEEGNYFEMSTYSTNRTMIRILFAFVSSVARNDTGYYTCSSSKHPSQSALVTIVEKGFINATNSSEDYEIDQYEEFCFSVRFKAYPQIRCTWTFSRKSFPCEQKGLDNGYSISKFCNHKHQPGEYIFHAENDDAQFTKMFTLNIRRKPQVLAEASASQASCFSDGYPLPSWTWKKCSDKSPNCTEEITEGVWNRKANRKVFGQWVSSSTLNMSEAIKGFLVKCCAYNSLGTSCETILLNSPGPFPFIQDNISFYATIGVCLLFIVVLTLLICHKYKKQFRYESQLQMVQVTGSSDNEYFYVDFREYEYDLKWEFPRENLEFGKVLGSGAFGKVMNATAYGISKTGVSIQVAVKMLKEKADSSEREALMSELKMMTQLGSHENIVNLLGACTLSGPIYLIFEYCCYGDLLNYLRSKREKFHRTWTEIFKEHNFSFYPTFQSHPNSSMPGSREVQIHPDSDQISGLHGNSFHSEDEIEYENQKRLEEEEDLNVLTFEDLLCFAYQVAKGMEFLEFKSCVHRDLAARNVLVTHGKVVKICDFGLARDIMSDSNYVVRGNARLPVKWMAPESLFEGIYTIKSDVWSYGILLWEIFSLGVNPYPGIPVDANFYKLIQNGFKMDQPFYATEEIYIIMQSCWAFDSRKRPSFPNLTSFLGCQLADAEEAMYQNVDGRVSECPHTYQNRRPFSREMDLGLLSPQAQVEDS

FLT3 on RS4;11 cells [11] = biological target: T2, FLT3 on RS4;11 cells; test: flow cytometry: biotinylated rhuFLT3L on RS4;11 cells, detected with BV421-streptavidin
hFLT3 receptor = biological target: T3, hFLT3 receptor (human, UniProt P36888 27-541, limits assumed); test: Biacore
T3 construct: The construct is not described
T3 sequence (looked up): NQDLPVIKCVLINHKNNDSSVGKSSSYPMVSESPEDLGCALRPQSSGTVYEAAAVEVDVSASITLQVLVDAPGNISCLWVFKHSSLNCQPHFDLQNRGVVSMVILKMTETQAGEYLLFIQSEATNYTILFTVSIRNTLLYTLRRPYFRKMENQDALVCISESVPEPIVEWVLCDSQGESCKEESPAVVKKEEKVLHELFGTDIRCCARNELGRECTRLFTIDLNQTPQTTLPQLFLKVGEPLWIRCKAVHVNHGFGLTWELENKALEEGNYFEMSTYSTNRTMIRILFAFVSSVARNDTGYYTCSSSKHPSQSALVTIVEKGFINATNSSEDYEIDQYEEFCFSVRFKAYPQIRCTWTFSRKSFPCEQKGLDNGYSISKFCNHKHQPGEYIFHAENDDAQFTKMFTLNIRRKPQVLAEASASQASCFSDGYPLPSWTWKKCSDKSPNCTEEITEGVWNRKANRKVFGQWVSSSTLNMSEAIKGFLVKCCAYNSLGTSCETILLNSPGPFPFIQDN

Row | Kd [1] [nM] | Kd [2] [nM] | koff [3] [s⁻¹] | kon [3] [M⁻¹ s⁻¹] | koff [4] [s⁻¹] | kon [4] [M⁻¹ s⁻¹] | Kd [5] [nM] | Kd [6] [nM] | fold KD against the remaining lead antibodies [7] [fold] | fold KD against the remaining lead antibodies [8] [fold] | Kd [9] [nM] | koff [9] [s⁻¹] | kon [9] [M⁻¹ s⁻¹] | fold decrease in Allophycocyanin (APC) MFI, an indicator of FLT3 expression, on RS4;11 cells (FLT3 on RS4;11 cells [10]) [fold] | EC50 (read off the curve) (FLT3 on RS4;11 cells [11]) [nM] | Kd (hFLT3 receptor) [nM] | koff (hFLT3 receptor) [s⁻¹] | kon (hFLT3 receptor) [M⁻¹ s⁻¹] | Binder
1 | 1610 | 1600 | 0.0707 | 61000 | 0.0707 | 61000 | 1160 | 1160 | > 50 | > 50 | 1160 | 0.0707 | 60000 |  |  |  |  |  | CAT5D9 Fab (Fab, V domains shown, also called 5D9 parent) VH: QVQLVQSGAEVKKPGSSVKVSCKISGGTFSSYALSWVRQAPGQGLEWMGGIIPVFRTASYAQKFQGRVTITVDESASTGYIELSSLKSEDTATYYCASNNYVWGSYRFWGQGTTVTVSS VL: NFMLTQPHSVSESPGKTVTISCTRTSGNIAGYFVQWYQQRPGSSPTTVIYEDYQRPSGVPDRFSGSIDRSSNSASLTISGLKPDDEADYYCQSYDDTSQGVFGAGTKVTVL
2 |  |  |  |  |  |  |  |  |  |  |  |  |  | 25 | ~0.1 | 22.3 | 0.00812 | 360000 | B1

Source: patent US20230056815A1 (VIELA BIO, published 2023)
